From US20210128704A1 (UNIVERSITY OF MIAMI, published 2021)

Molecular target: T1, ITPR1 (inositol 1,4,5-trisphosphate receptor type 1) (UniProt Q14643 1-2758, limits assumed)
T1 construct: Endogenous protein of the transfected cells, tested by co-immunoprecipitation and western blot
Test: co-immunoprecipitation with antibodies to the tag and western blot, HEK293 cells before and after forskolin
Excerpt: Overexpression of V5-Car10 and V5-CA10 inhibits ATP-induced free calcium release in vitro: ITPR1 contains functionally distinct domains, including the ‘modulatory’ domain responding to intracellular modulators such as calcium, calmodulin, ATP, and carbonic anhydrase-8 (Car8). ATP increases ITPR1-dependent calcium release by increasing the open probability of the channel in the presence of activating concentrations of IP3 and calcium. It is believed that Car8-mediated inhibition of ITPR1 activation and ATP-mediated calcium release requires binding to this modulatory domain. […] Co-immunoprecipitation of each protein with antibodies to V5 tag with ITPR1 and pITPR1 before and after forskolin stimulation of HEK293 cells was conducted.

T1 sequence (Q14643 whole entry): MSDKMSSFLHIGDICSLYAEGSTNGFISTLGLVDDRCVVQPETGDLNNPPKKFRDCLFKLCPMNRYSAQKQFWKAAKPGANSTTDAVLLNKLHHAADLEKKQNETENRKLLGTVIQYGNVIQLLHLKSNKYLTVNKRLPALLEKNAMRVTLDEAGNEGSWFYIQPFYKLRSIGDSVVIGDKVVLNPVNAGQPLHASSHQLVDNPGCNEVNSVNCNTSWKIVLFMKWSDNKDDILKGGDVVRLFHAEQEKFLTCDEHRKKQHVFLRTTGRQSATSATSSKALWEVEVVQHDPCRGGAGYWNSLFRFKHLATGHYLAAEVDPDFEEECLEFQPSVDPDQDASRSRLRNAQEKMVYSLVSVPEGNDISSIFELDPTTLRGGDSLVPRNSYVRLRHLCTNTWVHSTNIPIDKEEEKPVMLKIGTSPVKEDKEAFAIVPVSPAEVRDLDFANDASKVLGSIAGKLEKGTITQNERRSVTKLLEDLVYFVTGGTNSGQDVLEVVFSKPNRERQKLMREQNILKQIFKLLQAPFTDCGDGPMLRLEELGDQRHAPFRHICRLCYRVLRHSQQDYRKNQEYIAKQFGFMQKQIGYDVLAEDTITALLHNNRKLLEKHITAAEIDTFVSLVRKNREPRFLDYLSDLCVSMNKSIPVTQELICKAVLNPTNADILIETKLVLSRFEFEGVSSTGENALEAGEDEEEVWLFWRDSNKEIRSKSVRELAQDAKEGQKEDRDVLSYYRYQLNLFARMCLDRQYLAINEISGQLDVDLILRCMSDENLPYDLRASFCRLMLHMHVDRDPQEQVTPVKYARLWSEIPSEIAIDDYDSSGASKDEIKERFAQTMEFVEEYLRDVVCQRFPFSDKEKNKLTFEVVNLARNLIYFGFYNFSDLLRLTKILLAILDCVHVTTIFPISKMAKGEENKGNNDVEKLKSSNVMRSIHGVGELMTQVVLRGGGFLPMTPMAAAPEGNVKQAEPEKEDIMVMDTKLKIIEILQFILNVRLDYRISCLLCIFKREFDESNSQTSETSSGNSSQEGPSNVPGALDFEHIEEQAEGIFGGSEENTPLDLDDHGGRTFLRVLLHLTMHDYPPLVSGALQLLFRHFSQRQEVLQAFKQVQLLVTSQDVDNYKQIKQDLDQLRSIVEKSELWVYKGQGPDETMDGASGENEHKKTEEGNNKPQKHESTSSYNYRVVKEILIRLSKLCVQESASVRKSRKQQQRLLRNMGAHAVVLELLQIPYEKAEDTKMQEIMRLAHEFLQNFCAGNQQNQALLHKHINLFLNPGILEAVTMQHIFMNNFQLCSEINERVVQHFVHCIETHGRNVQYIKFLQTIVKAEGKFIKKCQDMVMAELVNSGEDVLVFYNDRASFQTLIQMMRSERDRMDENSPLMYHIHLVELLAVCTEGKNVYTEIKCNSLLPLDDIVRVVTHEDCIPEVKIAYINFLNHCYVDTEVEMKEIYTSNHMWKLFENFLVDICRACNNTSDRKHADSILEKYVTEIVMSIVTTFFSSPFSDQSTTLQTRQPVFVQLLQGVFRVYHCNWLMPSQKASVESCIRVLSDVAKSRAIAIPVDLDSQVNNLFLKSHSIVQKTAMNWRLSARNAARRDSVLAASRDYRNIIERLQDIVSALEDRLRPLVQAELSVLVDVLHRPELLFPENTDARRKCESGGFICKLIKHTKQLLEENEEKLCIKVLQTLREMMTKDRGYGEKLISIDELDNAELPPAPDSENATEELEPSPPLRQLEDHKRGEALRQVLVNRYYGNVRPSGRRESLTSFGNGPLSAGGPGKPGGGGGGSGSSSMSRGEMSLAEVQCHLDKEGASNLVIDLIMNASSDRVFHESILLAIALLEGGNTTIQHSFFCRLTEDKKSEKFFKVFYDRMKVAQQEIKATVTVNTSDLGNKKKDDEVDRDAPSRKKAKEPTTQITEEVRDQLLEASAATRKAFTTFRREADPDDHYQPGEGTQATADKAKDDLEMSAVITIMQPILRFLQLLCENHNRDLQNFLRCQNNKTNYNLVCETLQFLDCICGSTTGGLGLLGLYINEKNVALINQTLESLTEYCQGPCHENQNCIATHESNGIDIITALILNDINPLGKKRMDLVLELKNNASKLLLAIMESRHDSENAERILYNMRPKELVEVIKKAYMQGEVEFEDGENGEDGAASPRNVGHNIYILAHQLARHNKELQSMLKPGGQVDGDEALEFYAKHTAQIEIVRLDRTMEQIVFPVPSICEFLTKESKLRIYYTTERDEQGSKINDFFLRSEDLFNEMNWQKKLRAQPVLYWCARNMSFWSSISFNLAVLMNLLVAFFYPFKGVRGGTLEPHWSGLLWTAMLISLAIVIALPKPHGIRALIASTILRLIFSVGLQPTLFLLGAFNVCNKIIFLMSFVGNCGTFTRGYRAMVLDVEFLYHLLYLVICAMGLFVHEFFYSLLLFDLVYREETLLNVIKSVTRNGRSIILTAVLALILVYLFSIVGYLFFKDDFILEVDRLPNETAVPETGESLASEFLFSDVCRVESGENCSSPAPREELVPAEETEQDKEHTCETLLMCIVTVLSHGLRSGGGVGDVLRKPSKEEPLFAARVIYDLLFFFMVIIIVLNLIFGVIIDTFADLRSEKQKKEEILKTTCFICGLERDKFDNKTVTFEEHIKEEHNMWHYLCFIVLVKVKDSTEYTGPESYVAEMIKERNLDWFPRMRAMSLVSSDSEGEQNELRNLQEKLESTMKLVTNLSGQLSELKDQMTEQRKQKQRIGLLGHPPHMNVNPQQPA

B1: CA8-204 (carbonic anhydrase 8 fragment, alternative transcript product) (other, not shown: small tags and cut ends)
chain: MADLSFIEDTVAFPEKEEDEEEEEEGVEWGYEEGVEWGLVFPDANGEYQSPINLNSREARYDPSLLDVRLSPNYVVCRDCEVTNDGHTIQVILKSKSVLSGGPLPQGHEFELYEVRFHWGRENQRGSEHTVNFKAFPMEVRITNHLVKILFSE
notes: Expressed in HEK293 cells; also called CA8 fragment
  binding result: no binding
